Assay results: publication PMC8145141, “Characterization of a Dye-Decolorizing Peroxidase from Irpex lacteus Expressed in Escherichia coli: An Enzyme with Wide Substrate Specificity Able to Transform Lignosulfonates” (Journal of Fungi, 2021)

Tests used:
purified protein [1] = substrate: Nc1c(N=Nc2ccc(S(=O)(=O)CCOS(=O)(=O)O)cc2)c(S(=O)(=O)O)cc2cc(S(=O)(=O)O)c(N=Nc3ccc(S(=O)(=O)CCOS(=O)(=O)O)cc3)c(O)c12; assay: purified protein; format: biochemical, Irpex lacteus; conditions: 0.4 mM H2O2, pH 3.0, 25 °C
purified protein [2] = substrate: CCn1c(=NN=c2sc3cc(S(=O)(=O)O)ccc3n2CC)sc2cc(S(=O)(=O)O)ccc21; assay: purified protein; format: biochemical, Irpex lacteus; conditions: 0.4 mM H2O2, pH 3.0, 25 °C

B1: IrlacDyP (recombinant Irpex lacteus DyP) (Irpex lacteus) (protein)
chain: SAGNDSLPFENIQGDILVGMKKDKEKFVFFHINNATTFKSFLKTYAPANITSVQTIIGPASGQPQAFVNLAFSHTGFGALGVADDLQDTAFTAGQFADAPSFGDDTSTWEEAFKGTNVDGVFLIGSDDVTTTNQYRDDLKAKLGDAWTVLLDLDSAARPGAEKGHEHFGYLDGISNPTIPGFGTPFPGQAVVDSGVIFAGRTNDPVTNRPSWALDGSFLVFRKLKQLVPEFHKWTLDNALQNQAGNLTVEEGALLLGSRMFGRWNSGAPIDLTPDVDDPTLGSDPQRNNDFNYIHPGEDLTTDETRCPFTAHVRKANPRDLEAQGLIPDLFHAIRAGTPYGPEVTDAESNSNTTSIDRGLAFVEYQSVISNGFRFQQLNWANNANFPFNKSEPLGLDPVIGQGTRQTFGLDPRNASDSLTIPQIIISNGGEYFFSPSITALVEHFGA
notes: mature form, signal peptide removed, 447 residues; about 50 kDa, non-glycosylated
B1 gave a Km (purified protein [1]) of 11.9 ± 2.1 µM, a kcat/Km (purified protein [1]) of 6.5e+06 ± 1e+06 M⁻¹ s⁻¹ and a Km (purified protein [2]) of 1.5 ± 0.2 µM. The kcat (purified protein [2]) was 49.8 ± 1.3 s⁻¹ and the kcat/Km (purified protein [2]) was 3.3e+07 ± 4e+06 M⁻¹ s⁻¹.
